Measurements published in patent US12059437B2, “Methods and compositions for hematopoietic stem cell mobilization” (The Regents of the University of California, priority 2019, dated 2024).

Columns and labels:
[1] = test system: HSCs (cKIT+lineage-SCA1+CD27+FLK2- cells); test: HSC mobilization to the blood in mice (perfused blood, flow cytometry); assay type: in vivo, mouse
Protocol: FIG. 1A: Experimental design for 2-hour HSC mobilization with sildenafil citrate plus AMD3100 (top), or 5-day GCSF treatment (bottom). GCSF was administered to mice once daily for 4 days (250 μg/kg). Sildenafil citrate was administered via oral gavage (OG; 3 mg/kg) once, 1 hr prior to a single subcutaneous (SQ) injection of AMD3100 (2.5 mg/kg). […]
FIG. 2E: Experimental design for HSC mobilization with multiple daily doses of sildenafil citrate. Sildenafil citrate was administered orally (OG) at 10 mg/kg once daily for 3 days. AMD3100 (2.5 mg/kg-5 mg/kg) was injected subcutaneously (SQ) 1 hour after the third sildenafil citrate dose, followed 1 hour later by blood perfusion and analysis.
Mobilization/tissue isolation. Mice were treated with subcutaneous (SQ) injections of rhGCSF (Amgen, Thousand Oaks, CA, 250 μg/kg) or a single dose of AMD3100 (Sigma, 2.5 mg/kg or 5 mg/kg where specified), or by oral gavage (OG) with sildenafil citrate (Viagra®; Sigma; 3, 10 or 30 mg/kg) (Motta et al., 2015) as indicated. Maximum blood was obtained by perfusing the mouse with PBS/20 mM EDTA through the left ventricle, clipping the right atrium and collecting the pooled perfused blood in the chest cavity. The total blood was processed for cell counts and flow cytometry analysis, as described previously (Smith-Berdan et al., 2011, 2015). Briefly, cells were pelleted by centrifugation, washed with 2% donor calf serum in PBS to remove EDTA, then incubated with fluorescently conjugated antibodies for flow cytometry analysis or resuspended in HBSS for transplantation into conditioned recipients.
(§1) Flow cytometry. Cell labeling was performed on ice in 1× PBS with 5 mM EDTA and 2% serum. Antibodies used are listed in the supplemental table. Samples were analyzed for donor chimerism (detectable by either GFP or antibodies targeted at the CD45.1/2 locus) on an LSRII or AriaIII (Becton Dickinson, San Jose, CA), as described previously (Beaudin et al., 2016; Boyer et al., 2011, 2019; Leung et al., 2019; Smith-Berdan et al., 2011, 2015; Ugarte et al., 2015).

HSCs = test: Transplantation of mobilized blood into irradiated recipients (reconstitution, donor chimerism); assay type: in vivo, mouse; details: compared to sildenafil citrate plus AMD3100; total donor chimerism 20 weeks post-transplantation
Source text: FIG. 1E: Donor chimerism over 5 months in lethally irradiated mice transplanted with blood from mice mobilized with AMD3100 alone or with both sildenafil citrate and AMD3100 as in the schedule shown in FIG. 1A. UBC-GFP mice were used as the mobilized donor mice, enabling identification of donor derived (GFP+) cells versus the unlabeled cells of the wild-type recipients. N=5-7 mice per cohort in 3 independent experiments. Paired t-test; *p<0.05 and **p<0.01.
FIGS. 11 and 1J: Long-term multilineage engraftment upon serial transplantation of bone marrow cells from the primary recipients in FIGS. 1E-1H into secondary, lethally irradiated wt hosts. Total donor chimerism in the peripheral blood over the course of the experiment is shown on the left. Quantification of donor-derived B, T and GM cells, platelets and erythrocytes 20 weeks post-transplantation is shown on the right. Data represent three independent experiments, N=9-12 mice per cohort. Unpaired t-test; *p<0.05, **p<0.01, ***p<0.001.
Transplantation of mobilized HSPCs. […]
as §1, with “Cell labeling was performed on ice in 1× PBS with 5 mM EDTA and 2% serum. Antibodies used are listed in the supplemental table.” left out

**Q.** How did the “increase of numbers of phenotypic HSCs compared to control mice” value ([1]; AMD3100 single SQ injection alone or plus a single oral sildenafil citrate dose (2-hour protocol), total perfused blood) turn out when `c1cc(CN2CCCNCCNCCCNCC2)ccc1CN1CCCNCCNCCCNCC1` [AMD3100, reference compound] was run?
**A.** Its value is 2.9 fold.

**Q.** What about the “numbers of HSCs in the blood 4 hrs post-treatment” value ([1]; perfusion and blood analysis 4 hours post AMD3100) of the same molecule?
**A.** Its value is “return to steady-state levels”.

**Q.** And the HSC mobilization ([1]; single subcutaneous dose)?
**A.** Its HSC mobilization is “modest, but reproducible, HSC mobilization”.

B1: G-CSF: granulocyte-colony stimulating factor, rhGCSF (Amgen), standard mobilizing agent (protein, UniProt P09919 31-207, looked up)
Granulocyte …: TPLGPASSLPQSFLLKCLEQVRKIQGDGAALQEKLVSECATYKLCHPEELVLLGHSLGIPWAPLSSCPSQALQLAGCLSQLHSGLFLYQGLLQALEGISPELGPTLDTLQLDVADFATTIWQQMEELGMAPALQPTQGAMPAFASAFQRRAGGVLVASHLQSFLEVSYRVLRHLAQP
**Q.** B1 was tested. Which “numbers of phenotypic HSCs in the blood compared to sildenafil citrate plus AMD3100” value ([1]; 5-day GCSF protocol) did it give?
**A.** Its value is “did not lead to significantly higher numbers of phenotypic HSCs”.

**Q.** And the “numbers of HSCs in the bloodstream” value ([1]; 1 day after four consecutive days of G-CSF injections)?
**A.** The value was ~3,400 HSCs/mouse.

**Q.** And the “mobilization of HSCs and/or HPCs” value ([1]; FIGS. 2P and 2Q, GCSF 250 μg/kg for 4 days, AMD3100 5 mg/kg for 1 hour)?
**A.** The value was “effectively mobilizes HSCs and/or HPCs”.

**Q.** What about the “reconstitution of recipients by blood from mobilized donors” value (HSCs) of the same molecule?
**A.** Its value is “reconstituted recipients more robustly”.
